Laboratory results from patent publication US20050048594.

Target: T1, peptide ARKRERAF(3-CF3)SFGHHA
T1 chain: ARKRERAFSFGHHA

B1: serine/threonine p21-activated kinase PAK4 (protein)
chain: SPQREPQRVSHEQFRAALQLVVDPGDPRSYLDNFIKIGEGSTGIVCIATVRSSGKLVAVKKMDLRKQQRRELLFNEVVIMRDYQHENVVEMYNSYLVGDELWVVMEFLEGGALTDIVTHTRMNEEQIAAVCLAVLQALSVLHAQGVIHRDIKSDSILLTHDGRVKLSDFGFCAQVSKEVPRRKSLVGTPYWMAPELISRLPYGPEVDIWSLGIMVIEMVDGEPPYFNEPPLKAMKMIRDNLPPRLKNLHKVSPSLKGFLDRLLVRDPAQRATAAELLKHPFLAKAGPPASIVPLMRQNRTR
phosphorylation of the peptide followed by 19F NMR (150 nM PAK4): the reaction in the presence of PAK4 results in the appearance of a 19F signal with a chemical shift similar to the shift of a phosphorylated peptide
speed of the enzymatic reaction relative to AKT1: The speed of the enzymatic reaction of PAK4 is only 1/22 of the speed of AKT1
